Experimental findings from US20190389966A1 (Regeneron, published 2019) are described below.

The target in the experiment is T1, MUC16 on OVCAR-3 cells (human, UniProt Q8WXI7 1-14507).
T1 construct: whole, on cells; also called Mucin 16
The experiment is described as follows: FACS binding to OVCAR-3 cells. In general terms: In flow cytometry, cells or beads pass a laser one at a time.

B1: BSMUC16/CD3-001 (bispecific antibody, V domains shown)
VH 1: QVQLVESGGGLVKPGGSLRLSCAASGFTFSNYYMSWVRQAPGKGLEWISYISGRGSTIFYADSVKGRITISRDNAKNSLFLQMNSLRAEDTAVYFCVKDRGGYSPYWGQGTLVTVSS
VH 2: EVQLVESGGGLVQPGRSLRLSCAASGFTFDDYSMHWVRQAPGKGLEWVSGISWNSGSKGYADSVKGRFTISRDNAKNSLYLQMNSLRAEDTALYYCAKYGSGYGKFYHYGLDVWGQGTTVTVSS
VL: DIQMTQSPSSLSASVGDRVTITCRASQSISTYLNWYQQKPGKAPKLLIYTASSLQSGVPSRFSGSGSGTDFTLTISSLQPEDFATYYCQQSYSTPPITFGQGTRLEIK
notes: It was biotinylated in the ELISA and DFO/89Zr-labelled at Gln 295 for PET; also called anti-MUC16xCD3 bispecific antibody; BSMUC16/CD3-0001
As to B1, the binding result is listed as “binds”.
